Substitutions are numbered along the chain they refer to. Names may count otherwise.

Assay [1] concerns the target T1, human IL-2Rβ (human, UniProt P14784 27-240, limits assumed).
T1 construct: also called hIL-2Rβ; IL-2 receptor beta
T1 sequence (looked up): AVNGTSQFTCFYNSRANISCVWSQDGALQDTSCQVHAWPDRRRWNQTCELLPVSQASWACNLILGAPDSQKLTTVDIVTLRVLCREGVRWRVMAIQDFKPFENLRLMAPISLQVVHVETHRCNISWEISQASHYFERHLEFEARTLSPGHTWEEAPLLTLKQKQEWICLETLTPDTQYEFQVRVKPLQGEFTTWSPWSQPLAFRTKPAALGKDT
Nature of the assay: SPR, steady state, fusion captured. On the procedure: (§1) Anti-human Fc sensor chips were prepared at 25° C. with a running buffer of 10 mM HEPES, 150 mM NaCl, 0.05% (v/v) Tween-20, pH 7.4. All surfaces of a Biacore CM4 sensor chip were activated with a 1:1 (v/v) mixture of 400 mM EDC and 100 mM NHS for 7 minutes, at a flow rate of 10 μL/min. An anti-human Fc reagent (Goat anti-human IgG Fc-γ specific, SouthernBiotech, Birmingham, Ala., Catalog #2014-01) was diluted to 50 μg/mL in 10 mM sodium acetate (pH 4.5) and injected on all flow cells for 7 minutes at 20 μL/min. All flow cells were blocked with 100 mM ethylenediamine in 200 mM Borate buffer pH 8.5 for 7 minutes at 10 μL/min.
(§2) All protein interaction experiments were performed at 37° C. using a running buffer of 10 mM HEPES, 150 mM NaCl, 0.05% (v/v) Tween-20, pH 7.4, 1 mg/mL BSA. Anti-PD-1-hIL-15 fusion proteins were captured at 10 μg/mL at a flow rate of 10 μL/min for 2 minutes. Different fusion proteins were captured in flow cells 2, 3 and 4. No protein was captured onto flow cell 1 which was used as a reference surface. […] After each analyte injection, dissociation was monitored for 5 minutes followed by regeneration of all flow cells with three 60-second injections of 75 mM phosphoric acid. […] For kinetic analysis, the double-referenced sensorgrams were fit globally to a simple 1:1 Langmuir with mass transport binding model using Biacore T200 Evaluation Software version 2.0. For steady-state affinity analysis, the double-referenced equilibrium binding responses were fit with a 1:1 Langmuir steady-state model using Biacore T200 Evaluation Software version 2.0.
In general terms: SPR reads the build-up and loss of mass on a sensor chip optically.

The target of assay [2] is T2, human IL-15Rα (human, UniProt Q13261 31-205, limits assumed).
T2 construct: also called hIL-15Rα; IL-15 receptor alpha
T2 sequence (Q13261 31-205 limits assumed): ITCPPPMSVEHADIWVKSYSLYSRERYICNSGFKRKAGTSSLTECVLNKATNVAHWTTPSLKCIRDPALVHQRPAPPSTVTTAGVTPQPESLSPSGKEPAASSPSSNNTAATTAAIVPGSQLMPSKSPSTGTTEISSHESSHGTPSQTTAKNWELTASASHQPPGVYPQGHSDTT
The assay is described as follows: SPR 37C, fusion captured by anti-human Fc. Here is the method:
as §1, §2

Assay [3] deals with T1, human IL-2Rβ. The assay is described as follows: SPR, fusion captured. Here is the method:
as §1, §2

Assay [4] has as its target T1, human IL-2Rβ. Nature of the assay: SPR, kinetic fit.
Assay [5] has as its target T2, human IL-15Rα. Nature of the assay: SPR 37C.
In assay [6] the target is T1, human IL-2Rβ. The assay is described as follows: SPR 37C.
Assay [7] has as its target T1, human IL-2Rβ. The assay is described as follows: SPR, steady state.
In assay [8] the target is T2, human IL-15Rα. The assay is described as follows: SPR, steady state.

B1: xmPD-1-hIL15Rasu-hIL15(E64Q/D30N N4K) (other)
heavy 1: HHHHHHHHGGGGSGSGGEVQLVESGGGLVKPGGSLELSCAASGFTFSSYWMSWVRQAPEKGLEWVAAISPSGGSTYYADSVKGRFTISRDNAKNTLFLQMTSLRSEDTAMYYCAKESWGAYYDLWGQGTTVTVSSASTKGPSVFPLAPCSRSTSESTAALGCLVKDYFPEPVTVSWNSGALTSGVHTFPAVLQSSGLYSLSSVVTVPSSNFGTQTYTCNVDHKPSNTKVDKTVERKCRVRCPRCPAPPVAGPSVFLFPPKPKDTLMISRTPEVTCVVVAVSHEDPEVQFNWYVDGVEVHNAKTKPREEQFNSTFRVVSVLTVVHQDWLNGKEYKCKVSNKGLPSSIEKTISKTKGQPREPQVYTLPPSREEMTKNQVSLTCLVKGFYPSDIAVEWESNGQPENNYKTTPPMLDSDGSFFLYSRLTVDKSRWQQGNVFSCSVMHEALHNHYTQKSLSLSPGK
heavy 2: EVQLVESGGGLVKPGGSLELSCAASGFTFSSYWMSWVRQAPEKGLEWVAAISPSGGSTYYADSVKGRFTISRDNAKNTLFLQMTSLRSEDTAMYYCAKESWGAYYDLWGQGTTVTVSSASTKGPSVFPLAPCSRSTSESTAALGCLVKDYFPEPVTVSWNSGALTSGVHTFPAVLQSSGLYSLSSVVTVPSSNFGTQTYTCNVDHKPSNTKVDKTVERKCEVECPECPAPPVAGPSVFLFPPKPKDTLMISRTPEVTCVVVAVSHEDPEVQFNWYVDGVEVHNAKTKPREEQFNSTFRVVSVLTVVHQDWLNGKEYKCKVSNKGLPSSIEKTISKTKGQPREPQVYTLPPSREEMTKNQVSLTCEVKGFYPSDIAVEWESNGQPENNYKTTPPMLDSDGSFFLYSKLTVDKSRWQQGNVFSCSVMHEALHNHYTQKSLSLSPGSGGGGGTSATATPGAITCPPPMSVEHADIWVKSYSLYSRERYICNSGFKRKAGTSSLTECVLNKATNVAHWTTPSLKCIRDPALVHQRPAPPSGGSGGGGSGGGSGGGGSGGNWVKVISDLKKIEDLIQSMHIDATLYTESNVHPSCKVTAMKCFLLELQVISLESGDASIHDTVQNLIILANNSLSSNGNVTESGCKECEELEEKNIKEFLQSFVHIVQMFINT
light: DIVMTQSPSSLSVSAGDKVTMSCRASQGISSWLAWYQQKPWQPPKLLIYKASTLESGVPDRFTGSGSGTDFTLTISSVQAEDLAVYYCQQSYSTPWTFGGGTKLEIKGTVAAPSVFIFPPSDEQLKSGTASVVCLLNNFYPREAKVQWKVDNALQSGNSQESVTEQDSKDSTYSLSSTLTLSKADYEKHKVYACEVTHQGLSSPVTKSFNRGEC
notes: not restated for this mutant
Usually Kd stands for the equilibrium constant for the complex coming apart. On to B1, for which, in the assay with human IL-2Rβ [1], the Kd was determined as 767 nM. Moreover, in the assay with human IL-15Rα [2], the binding result is reported as “no binding (tested: 3000 nM)”.

B2: xmPD-1-hIL15Rasu-hIL15(E64Q/D30N/N4K/M109A) (other)
heavy 1: B1 heavy 1
heavy 2: B1 heavy 2 with M664A
light: B1 light
notes: not restated for this mutant
Turning to B2, in the assay with human IL-2Rβ [3], the equilibrium dissociation constant (Kd) is over 3000 nM. In the assay with human IL-15Rα [2], the binding result is “no binding (tested: 3000 nM)”.

B3: xmPD-1-hIL15Rasu-hIL15(E64Q/D30N/M109A) (other)
heavy 1: B1 heavy 1
heavy 2: B1 heavy 2 with K559N, M664A
light: B1 light
notes: not restated for this mutant
For the molecule B3, the Kd with human IL-2Rβ [1] turned out to be 315 nM. The binding result with human IL-15Rα [2] was “no binding (tested: 3000 nM)”.

B4: hIL-15 V49R/D30G (ligand)
chain: NWVNVISDLKKIEDLIQSMHIDATLYTESGVHPSCKVTAMKCFLLELQRISLESGDASIHDTVENLIILANNSLSSNGNVTESGCKECEELEEKNIKEFLQSFVHIVQMFINTGGGGSGHHHHHHHHGGGLNDIFEAQKIEWHE
Molecule B4 returned a Kd with human IL-2Rβ [4] of 513 nM.

B5: hIL-15 V49R/L69K (ligand)
chain: B4 chain with G30D, L69K
Regarding B5, the binding result with human IL-15Rα [5] and in the assay with human IL-2Rβ [6] was “no binding” throughout.

B6: hIL-15 V49R/V31K (ligand)
chain: B4 chain with G30D, V31K
Turning to B6, the Kd with human IL-2Rβ [7] was over 500 nM. Besides, the binding result in the assay with human IL-15Rα [5] was “no binding”.

B7: hIL-15 V49R/L69P (ligand)
chain: B4 chain with G30D, L69P
Regarding B7, the binding result in the assay with human IL-15Rα [5] and with human IL-2Rβ [6] was “no binding” each time.

B8: hIL-15 V49R/I68P (ligand)
chain: B4 chain with G30D, I68P
Consider B8, for which the binding result with human IL-15Rα [5] and with human IL-2Rβ [6] was “no binding” throughout.

B9: hIL-15 V49R/K11W (ligand)
chain: B4 chain with K11W, G30D
For B9, the Kd with human IL-2Rβ [4] is 346 nM; with human IL-15Rα [8], 361 nM.

B10: hIL-15 V49R/D30P (ligand)
chain: B4 chain with G30P
With B10, in the assay with human IL-15Rα [5], the binding result is recorded as “no binding”.

B11: hIL-15 V49R/H32F (ligand)
chain: B4 chain with G30D, H32F
Turning to B11, the Kd with human IL-2Rβ [4] came to 315 nM.

B12: hIL-15 V49R/N1R (ligand)
chain: B4 chain with N1R, G30D
B12: the Kd in the assay with human IL-2Rβ [4] stood at 479 nM; in the assay with human IL-15Rα [8], 243 nM.

B13: hIL-15 V49R/N4Y (ligand)
chain: B4 chain with N4Y, G30D
In the case of B13, binding with human IL-2Rβ [4] was put at a Kd of 117 nM.

The values are drawn from US20210324028A1 (Pfizer, published 2021).
